# B1: ClpC with the RenG C-terminal domain (156-314) fused to its N-terminus (natural protein, S. mutans, UniProt Q8DS14 1-813, looked up)
# chain: MTDYSLKMQEVFRLAQFEAARFESSYLESWHVLLAMVEIDSSVAGLSFAEFEADVRFEDYQAAAILAIGKKPKSSSNDIMLLEQSHALKRTLAEAAAISQVTHAKEVGTEHVLFAMLLNPNLLATRILELVGFHAKDDGESIRLLDLRKVIERYAGFSKEDIKAIFEMRKPKKVKNSSSFSDLMKPPSVTGELADFTRDLTELARQGRLEPVIGREQEISRMVQILSRKTKNNPVLVGDAGVGKTALAYGLAQRIVDSAVPFELADMKVLELDMMSVVAGTRFRGDFEERMNQIIADIEADGHIVLFIDELHTIMGSGSGIDSTLDAANILKPALARGSLRTIGATTQEEYQKHIEKDAALSRRFAKVTIEEPSEEEAYQILLGLKKSYETYHHVIISDAAVMAAVKGAHRYLSGKNLPDSAIDLLDEASATVQGLVKKKAPAYLTDLDHALITNDYQLAKRLLKKEKKPLLKKRAEVKEEDILATLSKLSGIPVKKLTQADSKKYLNLERELHKRVIGQDDAVSSISRAIRRNQSGIRVGKRPIGSFMFLGPTGVGKTELAKALAEVLFDDESALIRFDMSEYMEKFAASRLNGAPPGYVGYEEGGELTEKVRNKPYSVLLFDEVEKAHPDIFNILLQVLDDGVLTDSRGRKVDFSNTIIIMTSNLGATALRDDKTVGFGAKSFSQDYKAMESRILEELKKVYRPEFINRIDEKVVFHNLGQEDIRHIVKIMVAPLIAHLADQGITLKFQPSALKHLALAGYDAEMGARPLRRTLQTEVEDKLAELILSGKLASGQTLKIGIQKEKLKFDIV
# notes: also called N-ClpC
# B2: GltB fused to the RenG C-terminal domain (156-314) (natural protein, S. mutans, UniProt Q8CWY8 1-478, looked up)
# chain: MADPFGFLKYERKDNPYRPVNERIKDFEELQTTLSVEERQKQAARCMNCGIPFCHEGTFYGGGRAVSGCPNDNLIPEWNDLIYKGDFRRAFERLTRTNPLPEMTGRVCPAPCEKACTEGLNGSGVTIHDNERFIIDNAFEEGWVADSGRPIERTGFKVAVVGSGPAGLSAAWRLNQLGHSVTVFERSDRFGGLLMYGIPNMKLDKKIVQRRIDTMASIGINFVANTEIGRDITAEELLEKFDRVILATGASVPRDLDIPGRDLKGIRFAVDFLTETTKNLLDSDTHELPPLLEGKHVLVIGGGDTGNDCIGTAVRLGAASVRQLEITPQLPEKRLPTNPWPQYPMINRTGYGQEEADFVQQTDLTDYITSTVEFLGENGQVTAVKTIKVGPGFKAIEGTEEVIKADLVLLAMGFTGAEKALFDQFRVECVYDDYSTRNEKVFVAGDARRGPSLVIWGIREGRKTAEKIDQNLRMMVTE
# B3: PheT fused to the RenG C-terminal domain (156-314) (natural protein, S. mutans, UniProt Q8CWX2 1-801, looked up)
# chain: MLVSYKWLKELVDIDVPSHELAEKMSTTGIEVEGVDVPAEGLSKLVVGHVLSCEDVPETHLHLCQVDTGEEESRQIVCGAPNITAGIKVIVALPGARIADNYKIKKGKIRGMESLGMICSLQELGLPDSIIPKEYSDGIQILPEDAVPGESIFPYLDLDDEIIELSITPNRADALSMRGVAHEVAAIYDKSVHFEDKVLTESDKKAADLIKVAIASDKVLTYKARVVENVTIKPSPQWLQNLLMNAGIRPINNVVDVTNYVLLYFGQPMHAFDLDKFEGKDILARQAKAGEKLVTLDGEARDLIEEDLVITVADKPVALAGVMGGAATEIDASSKNVVLEAAVFDGKSVRKTSSRLNLRSESSSRFEKGVNYADVVKALDFAAAMLTELADGTVLAGQVSAGAVPTDDIQVSTSLDYVNVRLGTDLVFSDIESVFARLGFGLSGNDEKFTVSVPRRRWDISIQADLVEEIARIYGYDKLPTTLPEAAGTVGELTKTQKLRRKIRNLAEGSGLSEIISYALTTPEKAVAFTPNPTKITELMWPMTVDRSALRQNIVSGMLDTIAYNVARKSNNLALYEIGKVFEQTADPKKDLPKEIDTFAFALTGLVTEKDFQTAATPVDFFYAKGVLEAILAKLEITVQFVATKEMANMHPGRTALIERDGQVIGYLGQVHPQTAKLYDIPETYVAEVNLNALEAALKSDLVFEDITKFPAVSRDIALLLSEKVSHQDILDAIAASGVKRLIKVKLFDVYAGEKLGVGKKSMAYSLTFQNPNDNLTDEEVAKYMEKITSALTEKVGAEVR
# notes: Phenylalanine-tRNA ligase subunit beta, PheT; S. mutans UA159; not shown: RenG luciferase C-terminal domain (156-314), C-terminal, kept
# B4: AlaS fused to the RenG C-terminal domain (156-314) (natural protein, S. mutans, UniProt Q8CWY0 1-872, looked up)
# chain: MKQLTSAQVRQMWLDFWKSKDHAIEPSANLVPVNDPTLLWINSGVATLKKYFDGSVIPENPRITNAQKAIRTNDIENVGKTARHHTMFEMLGNFSVGDYFRDDAIKWGFELLTSPEWFDLPKDKLYMTYYPDDKDSYNRWIECGVDPSHLIPIEDNFWEIGAGPSGPDTEIFFDRGEDFDPDHIGVRLLAEDIENDRYIEIWNIVLSQFNADPAVPRSEYKELPHKNIDTGAGLERLVAVMQGAKTNFETDLFMPIIREIEKLSGKTYDQDGDNMSFKVIADHIRSLSFAIGDGALPGNEGRGYVLRRLLRRAVMHGRRLGINEPFLYKLVPTVGKIMESYYPEVLEKQDFIEKIVKREEETFARTIDAGSNMLDQLLADLKAADKDTLEGKDIFRLYDTYGFPVELTEELAEDAGFKIDHQGFQAAMKEQQERARANVVKGGSMGMQNETLSNITEKSTFNYEKEALDSSLSVIIADNKRIEAVSEGQVLLVFSETPFYAEMGGQVADHGLIKNDKGDTVARVTDVQKAPNGQALHTVDVLGSLSVGTTYHLEIDHERRNRVMKNHTATHLLHAALHNVIGNHATQAGSLNEVEFLRFDFTHFEAVTPEELRQIEEEVNQQIWKAIPVTTIETDLDTAKEMGAMALFGEKYGKNVRVVSIGDYSVELCGGTHLKNTSEIGIFKIVKEEGIGSGTRRILAVTSKEAFEAYRQEEDILKEIATTLKAPQMNQVANKVASLQDQLHKLQKENAELKEKAAAVAAGDIFKDVKEVNGLRYIASQVEVADAGALRTFADKWKQKDYSDVLVLVASIGKKVNVLVASKSKDIHAGNLIKALAPIVSGRGGGKPDMAMAGGSDASAIKDLIAAVAENL
# notes: Alanine-tRNA ligase, AlaS; S. mutans UA159; not shown: RenG luciferase C-terminal domain (156-314), C-terminal, kept
# B5: UvrA fused to the RenG C-terminal domain (156-314) (natural protein, S. mutans, UniProt P72481 1-943, looked up)
# chain: MQDKLIIRGARAHNLKNIDVEIPRDKLIVMTGLSGSGKSSLAFDTIYAEGQRRYVESLSAYARQFLGNMDKPDVDSIDGLSPAISIDQKTTSKNPRSTVGTVTEINDYLRLLYARVGIPYCKNGHGAITASSVEQIVDQVLILPERTRMQILAPVVRRKKGQHKAVFDRIQKDGYVRVRIDGDIMDVAEVPELSKNKMHNIEVVVDRLVQKDGIRGRLFDSIEAALHLGDGYVIIDTMDDHELIFSEHYSCPVCGFTVPELEPRLFSFNAPFGSCPTCDGLGIKLEVDLDLVIPDENKTLREGTLAPWNPISSNYYPQLLEQAMNAFGVDMDKPWKDLSDEDKKLVLHGSGDTAFHFHYQNDFGGVRDIDIPFEGIISNISRRYHETNSDFTRNVMRSYMNELPCATCHGYRLNDQALSVRVGGKEGLNIGQVSELSIADHLSLLTHLELSENEKTIATPIVKEIKDRLTFLNNVGLNYLTLSRSAGTLSGGESQRIRLATQIGSNLSGVLYILDEPSIGLHQRDNDRLISSLKKMRDLGNTLIVVEHDEDTMMAADWLVDVGPGAGALGGEIVASGTPRQVAKNKKSITGQYLSGKKKIPVPLDRRKGSGRFIEIKGAAENNLQNINVKFPLGKFIAVTGVSGSGKSTLVNSILKKVIAQKLNRNSEKPGKYKSISGIEHIDRLIDIDQSPIGRTPRSNPATYTGVFDDIRDLFAQTNEAKIRGYKKGRFSFNVKGGRCEACSGDGIIKIEMHFLPDVYVPCEVCHGTRYNSETLEVHYKDKNIAEILNMTVNDAAEFFAPIPKIARKIRTIKDVGLGYVTLGQPATTLSGGEAQRMKLASELHKRSTGKSFYILDEPTTGLHTDDIARLLKVLERFVDDGNTVLVIEHNLDVIKTADHIIDLGPEGGVGGGQVIATGTPEQVAEMTESYTGQYLKGRLNEK
# notes: Excinuclease ABC subunit, UvrA; S. mutans UA159; not shown: RenG luciferase C-terminal domain (156-314), C-terminal, kept
# B6: IlvD fused to the RenG C-terminal domain (156-314) (natural protein)
# chain: not shown
# notes: Dihydroxy-acid dehydratase, IlvD; S. mutans UA159; not shown: RenG luciferase C-terminal domain (156-314), C-terminal, kept
# B7: MnmG fused to the RenG C-terminal domain (156-314) (natural protein, S. mutans, UniProt Q8DRS6 1-631, looked up)
# chain: MTHEFTENYDVIVIGAGHAGVEASLATSRMGCKTLLATINLEMLAFMPCNPSIGGSAKGIVVREIDALGGEMGKNIDKSYIQMRMLNTGKGPAVRALRAQADKALYARNMKHTVEQQENLTLRQSMIDEILVEDGKVIGVRTATNQKYSAQAVIVTTGTALRGEIILGELKYSSGPNNSLASVTLADNLRDLGLEIGRFKTGTPPRVKANSIHYDETEIQPGDKKANHFSFMSKDEDYLKDQIPCWLTYTNQSSHDIINKNLYRAPMFSGIVKGVGPRYCPSIEDKIVRFADKDRHQLFLEPEGRETEEVYIQGLSTSLPEDVQKDVVHSIKGLENAEMMRTGYAIEYDIVLPHQLRATLETKKISGLFTAGQTNGTSGYEEAAGQGIVAGINAALKIQGKPELILKRSDAYIGVMIDDLVTKGTLEPYRLLTSRAEYRLILRHDNADLRLTEIGHQVGLVNEERYMRFQIRKNQFDNELTRLSSIKLKPVAEINKRIEELGFKPLTDALTAKEFMRRPEINYAIATSFVGPAAESLDEKVIELLETEIKYEGYINKALDQVAKMKRMEEKRIPKNIDWDAIDSIATEARQKFKKINPETIGQASRISGVNPADISILMVYLEGKNRSRTR
# notes: not shown: RenG luciferase C-terminal domain (156-314), C-terminal, kept
# B8: TopA fused to the RenG C-terminal domain (156-314) (natural protein, S. mutans, UniProt Q8DUD3 1-705, looked up)
# chain: MTSKTTTTVKKTSKKRATPKKNLVIVESPAKAKTIEKYLGRSYKVVASVGHIRDLKKSSMSIDFDNNYEPQYINIRGKGPLINSLKKEAKNAKQIFLASDPDREGEAISWHLAHILDLDLKGKNRVVFNEITKDAVKNAFVEPRQIDMDLVDAQQARRVLDRIVGYSISPILWKKVKKGLSAGRVQSVALKLIIDRENEIKAFKPEEYWSIDGFFKKGNKKFQANFYGLDNKKTKLKSNDDVKKVLTRIKNDDFLVDKVEKKERKRNAPLPYTTSSLQQDAANKINFRTRKTMMVAQQLYEGIRLGSNGQQGLITYMRTDSTRISPVAQNDAANYITEHFGAEYSKHGNHVRNASGAQDAHEAIRPSNVNHTPESIAKYLDKDQLKLYTLIWNRFVASQMTAAVFDTVKVNLTQNGVLFIANGSQIKFKGYMAVYNDSDKTKVLPEMIKGETVKKISANPEQHFTQPPARYSEASLIKTLEENGVGRPSTYAPTLETIQKRYYVRLVSKRFEPTELGEIVNSLIIEFFPDIVDVKFTAEMESKLDEVEIGKEEWQKVIDQFYKPFEKEVIKAEEQMEKIQIKDEPAGFDCDVCGHPMVIKLGRYGKFYACSNFPDCHNTKAITKEIGVICPICQKGQVIERKTKRNRIFYGCDRYPDCDFTSWNKPIGRDCPKSGDFLVEKKIRGGGKQVVCSNEECDYKEKAVK
# Biological target: T1, MecA fused to the RenG N-terminal domain (1-155) (S. mutans, UniProt Q8DW33 1-240)
# T1 construct: adaptor protein MecA; S. mutans UA159; source: S. mutans, expressed in live cells; not shown: RenG luciferase N-terminal domain (1-155), C-terminal, kept
# T1 sequence: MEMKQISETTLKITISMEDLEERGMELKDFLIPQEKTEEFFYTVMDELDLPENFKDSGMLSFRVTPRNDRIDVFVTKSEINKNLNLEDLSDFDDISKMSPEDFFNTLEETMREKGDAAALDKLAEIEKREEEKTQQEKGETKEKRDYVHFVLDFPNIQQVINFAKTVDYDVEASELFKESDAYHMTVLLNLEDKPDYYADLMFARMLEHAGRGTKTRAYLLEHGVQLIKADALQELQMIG
# Test: split reporter (BiFC, NanoBiT)
# Conditions: partners not purified
row,Binder,relative binding affinity (%)
1,B1,55.2 ± 4.16
2,B2,7.45 ± 0.28
3,B3,17.9 ± 0.77
4,B4,5.5 ± 0.29
5,B5,7.86 ± 0.3
6,B6,13.1 ± 0.61
7,B7,8 ± 0.33
8,B8,8.64 ± 0.36

# From PMC10845952, “Mass spectrometry and split luciferase complementation assays reveal the MecA protein interactome of Streptococcus mutans” (Microbiology Spectrum, 2024)
